Source: patent publication US20250186614A1, “COMPACT DRUG RESPONSIVE DOMAINS FOR REGULATION OF FUNCTION/ABUNDANCE AND DELIVERY OF POLYPEPTIDE PAYLOADS” (OBSIDIAN THERAPEUTICS, INC., priority 2022, published 2025)
Read-outs that look alike come from different tables or passages of the source.

Key:
Assay type in all cases: cell-based
HEK-293T cells = experiment: Tacrolimus (FK506) response of FKBP13-AcGFP-mCherry constructs transiently transfected into HEK-293T cells, flow cytometry; conditions: for AcGFP stabilization / fluorescence signal in response to FK506: 0, 1 or 10 μM FK506, 24 hours; for Fold Change: tacrolimus response of FKBP13 DRD-AcGFP construct, Table 3
Source text: The DRD in FKBP13-039 was a wildtype (WT) FKBP13 (i.e., a 98 amino acid fragment of SEQ ID NO: 1). […] The FKBP13-043, FKBP13-044, and FKBP13-045 constructs included DRD-genic mutations D90G, M54A and M96V, respectively, and three binding site mutations (Q72R, Q84E, and A117H).

[1] = Example 4: dose response of FKBP constructs 160-255, Ec50, Ec90 and fold change (raw and normalized to mCherry); conditions: for FC (fold change): fold change during initial analysis
Method: Additional experiments were performed for constructs FKBP-160-292.

Jurkat cells [2] = experiment: Sirolimus (rapamycin) dose response of FKBP13 constructs stably transduced into Jurkat cells, flow cytometry; conditions: rapamycin, Table 14; for Rapamycin FC: fold change
Method: Normalized EC50 values were calculated from the mCherry normalized GFP MFI values, which accounted for any differences in mCherry intensity between samples.

Jurkat cells [3] = experiment: Tacrolimus dose response of FKBP13-AcGFP-mCherry constructs stably transduced into Jurkat cells, GFP MFI by flow cytometry; conditions: for EC90 / Tacrolimus FC: tacrolimus, Table 14; for Tacrolimus FC: fold change; for Fold Change: tacrolimus dose response
Outline: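 Jurkat E6-1 cells lentivirally transduced with FKBP13-AcGFP-mCherry constructs to 10-25% mCherry+ (day 5) were dosed with tacrolimus. GFP geometric MFI in mCherry+ cells was measured by flow cytometry and fitted to dose-response curves.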

[4] = FKBP constructs 160-255, not normalized, read-out: EC90
[5] = normalized to mCherry, read-out: EC90 (Norm)
[6] = normalized, read-out: Rapamycin EC90 (Norm)
[7] = read-out: Tacrolimus EC90 (Norm), normalized

| Molecule | EC90 (Jurkat cells [2]; read-out: Rapamycin EC90) | EC90 (Jurkat cells [3]; read-out: Tacrolimus EC90) | AcGFP stabilization / fluorescence signal in response to FK506 (HEK-293T cells; FIG. 1B) | DRD activity (HEK-293T cells; FIG. 1B) | Fold Change (HEK-293T cells) | EC90 [1, 4] | FC (fold change) [1] | EC90 [1, 5] | Rapamycin FC (Jurkat cells [2]) | EC90 (Jurkat cells [2]; [6]) | EC90 (Jurkat cells [3]; [7]) | Tacrolimus FC (Jurkat cells [3]) | Fold Change (Jurkat cells [3]; Jurkat cells stably transduced (FIG. 4), Table 4) | Fold Change (Jurkat cells [3]; Jurkat cells stably transduced (FIG. 10), Table 5) | EC50 and fold-change characteristics (Jurkat cells [3]; tacrolimus top concentration 10 μM, 24 hr, FIG. 2) |
| --- | --- | --- | --- | --- | --- | --- | --- | --- | --- | --- | --- | --- | --- | --- | --- |
| FKBP-043: FKBP13 DRD Q72R, Q84E, A117H, D90G; SEQ ID NO: 6 (protein, Description of sequence: FKBP13-AcGFP-mCherry Fusion; Construct Name: FKBP-043; FKBP13 DRD in Construct : FKBP13 (mutated to match FKBP12 active site - Q72R Q84E A117H) (DRD - D90G)) HCPIKSRKGDVLHMHYTGKLEDGTEFDSSLPRNQPFVFSLGTGEVIKGWGQGLLGMCEGEKRKLVIPSELGYGERGHPPKIPGGATLVFEVELLKIER | – | – | increased more effectively | had DRD activity | 26.5 | – | – | – | – | – | – | – | – | – | – |
| FKBP-040: FKBP13 DRD D90G; SEQ ID NO: 3 (protein, Description of sequence: FKBP13-AcGFP-mCherry Fusion; Construct Name: FKBP-040; FKBP13 DRD in Construct : FKBP13 (DRD - D90G)) HCPIKSRKGDVLHMHYTGKLEDGTEFDSSLPQNQPFVFSLGTGQVIKGWGQGLLGMCEGEKRKLVIPSELGYGERGAPPKIPGGATLVFEVELLKIER | – | – | – | – | 1 | – | – | – | – | – | – | – | – | – | – |
| FKBP-039: FKBP13 (WT) fragment DRD-AcGFP-mCherry; SEQ ID NO: 2 (protein, Description of sequence: FKBP13-AcGFP-mCherry Fusion; Construct Name: FKBP-039; FKBP13 DRD in Construct : FKBP13 (WT)) HCPIKSRKGDVLHMHYTGKLEDGTEFDSSLPQNQPFVFSLGTGQVIKGWDQGLLGMCEGEKRKLVIPSELGYGERGAPPKIPGGATLVFEVELLKIER | – | – | – | – | 4.9 | – | – | – | – | – | – | – | – | – | – |
| FKBP-044: FKBP13 DRD Q72R, Q84E, A117H, M54A; SEQ ID NO: 7 (protein, Description of sequence: FKBP13-AcGFP-mCherry Fusion; Construct Name: FKBP-044; FKBP13 DRD in Construct : FKBP13 (mutated to match FKBP12 active site - Q72R Q84E A117H) (DRD - M54A)) HCPIKSRKGDVLHAHYTGKLEDGTEFDSSLPRNQPFVFSLGTGEVIKGWDQGLLGMCEGEKRKLVIPSELGYGERGHPPKIPGGATLVFEVELLKIER | – | – | increased more effectively | – | 9.4 | – | – | – | – | – | – | – | 12.6 | 11.805 | best EC50 and fold-change characteristics |
| FKBP-042: FKBP13 DRD M96V; SEQ ID NO: 5 (protein, Description of sequence: FKBP13-AcGFP-mCherry Fusion; Construct Name: FKBP-042; FKBP13 DRD in Construct : FKBP13 (DRD - M96V)) HCPIKSRKGDVLHMHYTGKLEDGTEFDSSLPQNQPFVFSLGTGQVIKGWDQGLLGVCEGEKRKLVIPSELGYGERGAPPKIPGGATLVFEVELLKIER | – | – | – | – | 1.3 | – | – | – | – | – | – | – | – | – | – |
| FKBP-045: FKBP13 DRD Q72R, Q84E, A117H, M96V; SEQ ID NO: 8 (protein, Description of sequence: FKBP13-AcGFP-mCherry Fusion; Construct Name: FKBP-045; FKBP13 DRD in Construct : FKBP13 (mutated to match FKBP12 active site - Q72R Q84E A117H) (DRD - M96V)) HCPIKSRKGDVLHMHYTGKLEDGTEFDSSLPRNQPFVFSLGTGEVIKGWDQGLLGVCEGEKRKLVIPSELGYGERGHPPKIPGGATLVFEVELLKIER | – | – | increased more effectively | – | 23.2 | – | – | – | – | – | – | – | – | – | – |
| FKBP-041: FKBP13 DRD M54A; SEQ ID NO: 4 (protein, Description of sequence: FKBP13-AcGFP-mCherry Fusion; Construct Name: FKBP-041; FKBP13 DRD in Construct : FKBP13 (DRD - M54A)) HCPIKSRKGDVLHAHYTGKLEDGTEFDSSLPQNQPFVFSLGTGQVIKGWDQGLLGMCEGEKRKLVIPSELGYGERGAPPKIPGGATLVFEVELLKIER | – | – | – | – | 7.8 | – | – | – | – | – | – | – | – | – | – |

Continued, in another order:

| EC90 (Jurkat cells [2]; read-out: Rapamycin EC90) | EC90 (Jurkat cells [3]; read-out: Tacrolimus EC90) | Molecule | AcGFP stabilization / fluorescence signal in response to FK506 (HEK-293T cells; FIG. 1B) | DRD activity (HEK-293T cells; FIG. 1B) | Fold Change (HEK-293T cells) | EC90 [1, 4] | FC (fold change) [1] | EC90 [1, 5] | Rapamycin FC (Jurkat cells [2]) | EC90 (Jurkat cells [2]; [6]) | EC90 (Jurkat cells [3]; [7]) | Tacrolimus FC (Jurkat cells [3]) | Fold Change (Jurkat cells [3]; Jurkat cells stably transduced (FIG. 4), Table 4) | Fold Change (Jurkat cells [3]; Jurkat cells stably transduced (FIG. 10), Table 5) | EC50 and fold-change characteristics (Jurkat cells [3]; tacrolimus top concentration 10 μM, 24 hr, FIG. 2) |
| --- | --- | --- | --- | --- | --- | --- | --- | --- | --- | --- | --- | --- | --- | --- | --- |
| 5.87 µM | 17.9 µM | FKBP-186 (protein, Description of sequence: Construct Name: FKBP-186; Mutation(s): Q72R Q84E A117W V85R DRD M54A G116E) HCPIKSRKGDVLHAHYTGKLEDGTEFDSSLPRNQPFVFSLGTGERIKGWDQGLLGMCEGEKRKLVIPSELGYGEREWPPKIPGGATLVFEVELLKIER | – | – | – | 17.9 µM | 19.0 | 21 µM | 1.7 | 5.22 µM | 21 µM | 19 | – | – | – |
| 3.84 µM | 0.819 µM | FKBP-182 (protein, Description of sequence: Construct Name: FKBP-182; Mutation(s): Q72R Q84E A117W V85R DRD M54A M96W) HCPIKSRKGDVLHAHYTGKLEDGTEFDSSLPRNQPFVFSLGTGERIKGWDQGLLGWCEGEKRKLVIPSELGYGERGWPPKIPGGATLVFEVELLKIER | – | – | – | 0.819 µM | 64.9 | 0.928 µM | 21.5 | 4.11 µM | 0.928 µM | 64.9 | – | – | – |
| 5.34 µM | 22.1 µM | FKBP-185 (protein, Description of sequence: Construct Name: FKBP-185; Mutation(s): Q72R Q84E A117W V85R DRD M54A D50L T57I I136L) HCPIKSRKGAVLHAHYIGKLEDGTEFDSSLPRNQPFVFSLGTGERIKGWDQGLLGMCEGEKRKLVIPSELGYGERGWPPKIPGGATLVFEVELLKLER | – | – | – | 22.1 µM | 40.2 | 23.4 µM | 2 | 22 µM | 23.4 µM | 40.2 | – | – | – |
| 5.47 µM | 25.8 µM | FKBP-189 (protein, Description of sequence: Construct Name: FKBP-189; Mutation(s): Q72R Q84E A117W V85R DRD M54A H53G R72L) HCPIKSRKGDVLGAHYTGKLEDGTEFDSSLPLNQPFVFSLGTGERIKGWDQGLLGMCEGEKRKLVIPSELGYGERGWPPKIPGGATLVFEVELLKIER | – | – | – | 25.8 µM | 23.0 | 30.1 µM | 2.5 | 5.53 µM | 30.1 µM | 23 | – | – | – |
| 5.41 µM | 16.6 µM | FKBP-188 (protein, Description of sequence: Construct Name: FKBP-188; Mutation(s): Q72R Q84E A117W V85R DRD M54A F78S) HCPIKSRKGDVLHAHYTGKLEDGTEFDSSLPRNQPFVSSLGTGERIKGWDQGLLGMCEGEKRKLVIPSELGYGERGWPPKIPGGATLVFEVELLKIER | – | – | – | 16.6 µM | 20.5 | 20.8 µM | 2.6 | 5.83 µM | 20.8 µM | 20.5 | – | – | – |
| 5.31 µM | 14.5 µM | FKBP-187 (protein, Description of sequence: Construct Name: FKBP-187; Mutation(s): Q72R Q84E A117W V85R DRD M54A L80G) HCPIKSRKGDVLHAHYTGKLEDGTEFDSSLPRNQPFVFSGGTGERIKGWDQGLLGMCEGEKRKLVIPSELGYGERGWPPKIPGGATLVFEVELLKIER | – | – | – | 14.5 µM | 24.0 | 21.3 µM | 2.3 | 5.66 µM | 21.3 µM | 24 | – | – | – |
| 11.8 µM | 14.1 µM | FKBP-181 (protein, Description of sequence: Construct Name: FKBP-181; Mutation(s): Q72R Q84E A117W V85R DRD M54A D50L) HCPIKSRKGLVLHAHYTGKLEDGTEFDSSLPRNQPFVFSLGTGERIKGWDQGLLGMCEGEKRKLVIPSELGYGERGWPPKIPGGATLVFEVELLKIER | – | – | – | 14.1 µM | 52.0 | 5.06 µM | 15.5 | 11.5 µM | 5.06 µM | 52 | – | – | – |
